The results in this text go back to patent publication US20180134756A1 (NATIONAL INSTITUTE OF ADVANCED INDUSTRIAL SCIENCE AND …, published 2018).

The assay has as its target T1, Aleuria Aurantia Lectin (AAL) (Aleuria aurantia, UniProt P18891 2-313).
T1 construct: Used as the probe in lectin blotting
T1 sequence (looked up): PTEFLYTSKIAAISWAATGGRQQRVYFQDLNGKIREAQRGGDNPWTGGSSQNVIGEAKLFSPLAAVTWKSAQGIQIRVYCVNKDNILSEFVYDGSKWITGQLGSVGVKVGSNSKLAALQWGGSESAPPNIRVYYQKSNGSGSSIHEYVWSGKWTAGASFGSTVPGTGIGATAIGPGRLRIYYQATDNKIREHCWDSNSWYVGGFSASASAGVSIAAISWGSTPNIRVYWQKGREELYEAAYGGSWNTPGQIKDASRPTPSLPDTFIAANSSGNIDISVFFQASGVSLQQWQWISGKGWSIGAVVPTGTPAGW
Put plainly: lectin blotting. On the procedure: It was reported that the natural WFA (nWFA) has a sugar chain including fucose, and thus, the lectin blotting was performed using Aleuria Aurantia Lectin (AAL) recognizing fucose. As a result, it was confirmed that the nWFA was a glycoprotein including a sugar chain that reacted to AAL (FIGS. 5A and 5B).

B1: natural Wisteria floribunda lectin (nWFA), purified, purchased from Vector Lab (other)
chain: KETTSFVFTRFSPDPQNLLLQGDTVVTSSGHLQLTQVKDGEPVYSSLGRALYYAPIHIWDSNTDTVANFVTSFSFVIDAPNKAKAADGLAFFLAPVDTEPQKPGGLLGLFHDDRHNKSNHIVAVEFDTFKNSWDPEGTHIGINVNSIVSRKTTSWDLENGEVANVVISYQASTKTLTASLVYPSSSTSYILNDVVDLKQILPEYVRVGFTAASGLSKDHVETHDVLAWTFDSDLPDPSSDDCN
modifications: one N-glycan (fucose-containing) expected at Asn146; disulfide bond between the two Cys272
notes: Lectin purified from seeds; Disulfide-linked dimer of about 60 KDa; also called natural WFA; nature-derived WFA
Turning to B1, the binding result is listed as “binds”.
